Like-named read-outs stand apart in the source and are kept apart here.
What was measured:
[1] = target: T1, ALK-1/BMPR-2 receptor pair of the PathHunter U2Os dimerization cells (DiscoverX 93-0962C3) (UniProt P37023 22-503; Q13873 27-1038); assay: cell-based or functional assay
[2] = target: T2, human BMPRII protein (Sino Biological, #10551-H08H) (human, UniProt Q13873 27-150); assay: ELISA, coated human BMPRII
T2 sequence (looked up): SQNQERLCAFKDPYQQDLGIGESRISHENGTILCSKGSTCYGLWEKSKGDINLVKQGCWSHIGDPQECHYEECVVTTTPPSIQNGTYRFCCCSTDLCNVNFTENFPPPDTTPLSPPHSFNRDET
Experimental: (§1) These binders were then tested using an ELISA assay. High binding plates (Corning, 9018) were coated with either 2 μg/ml of human BMPRII protein (Sino Biological, #10551-H08H) or 2 μg/ml of human ALK1 protein (Sino Biological, #10066-H08H) overnight at 4C. The plates were then washed three times with wash buffer (R&D Systems, WA126). […] The plates were then washed three times with wash buffer and DGL antibodies or controls, which were diluted with PBS and 0.1% BSA. The antibodies were incubated for one hour at room temperature and then the plates were washed three times with wash buffer. The plates were then incubated with mouse anti-human IgG Fc secondary—HRP (diluted with PBS/0.1% BSA); 100 ul per well at 2 μg/ml and incubated at room temperature for one hour. The plate was washed three times in wash buffer and then 100 ul TMB (R&D Systems, DY9998B, substrate reagent pack). After the wells turn blue, 50 ul of stop solution (R&D Systems, DY994) was added to each well and the absorbance of the plate was read at 450 nm. results can be found in Table 8.

[3] = target: human ALK1 protein (Sino Biological, #10066-H08H) (human, UniProt P37023 22-118); assay: ELISA, coated human ALK1
human ALK1 protein (Sino Biological, #10066-H08H), sequence (P37023 22-118 limits assumed): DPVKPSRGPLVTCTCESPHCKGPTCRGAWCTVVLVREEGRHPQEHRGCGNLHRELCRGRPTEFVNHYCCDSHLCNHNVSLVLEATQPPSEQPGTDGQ
Experimental: as §1

[4] = target: T1, ALK-1/BMPR-2 receptor pair of the …; assay: cell-based or functional assay; remark: listed apart in the source

T1 sequence (P37023 22-503, one chain of several): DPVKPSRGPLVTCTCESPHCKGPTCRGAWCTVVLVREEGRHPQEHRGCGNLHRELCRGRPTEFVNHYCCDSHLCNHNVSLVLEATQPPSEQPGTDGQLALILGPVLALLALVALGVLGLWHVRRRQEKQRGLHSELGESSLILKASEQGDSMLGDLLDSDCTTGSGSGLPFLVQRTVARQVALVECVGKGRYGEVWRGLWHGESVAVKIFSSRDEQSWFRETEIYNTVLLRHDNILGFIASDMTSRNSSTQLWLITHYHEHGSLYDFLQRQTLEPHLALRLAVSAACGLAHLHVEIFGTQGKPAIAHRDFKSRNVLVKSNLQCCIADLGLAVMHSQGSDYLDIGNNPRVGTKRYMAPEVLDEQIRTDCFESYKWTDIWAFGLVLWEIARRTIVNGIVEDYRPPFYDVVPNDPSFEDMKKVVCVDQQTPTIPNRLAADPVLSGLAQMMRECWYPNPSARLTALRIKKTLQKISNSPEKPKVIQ

B1: DGL634 (bispecific antibody)
chain 1: not shown
chain 2: EVQLLESGGGLVQPGGSLRLSCAASGFTFSNAWMNWVRQAPGKGLEWVSSISSSSSYIYYADSVKGRFTISRDNSKNTLYLQMNSLRAEDTAVYYCARAVAAGGMFWGLDQWGQGTLVTVTSSGGGGSGGGGSGGGGSQSVLTQPPSASGTPGQRVTISCSGSRSNIGSNSVHWYQQLPGTAPKLLIYGNSNRPSGVPDRFSGSKSGTSASLAISGLRSEDEADYYCQSYDSSLNDHVVFGGGTKLTVLDKTHTCPPCPAPEAAGAPSVFLFPPKPKDTLMISRTPEVTCVVVDVSHEDPEVKFNWYVDGVEVHNAKTKPREEQYNSTYRVVSVLTVLHQDWLNGKEYKCKVSNKALPAPIEKTISKAKGQPREPQVCTLPPSRDELTKNQVSLSCAVKGFYPSDIAVEWESNGQPENNYKTTPPVLDSDGSFFLVSKLTVDKSRWQQGNVFSCSVMHEALHNHYTQKSLSLSPGWSHPQFEK
**Q.** How did the “% Emax BMP9” value [1] turn out when B1 was run?
**A.** 16%

**Q.** And the “Emax (RLU)” value [1]?
**A.** 288000 RLU

**Q.** What about the “Abs450 1 nM” value [2] of the same binder?
**A.** 0.12

**Q.** What about the “Abs450 10 nM” value [2] of the same binder?
**A.** 0.19

**Q.** What about the “Abs450 100 nM” value [2] of the same binder?
**A.** 0.4

B2: DGL627 (bispecific antibody)
chain 1: not shown
chain 2: EVQLLESGGGLVQPGGSLRLSCAASGFTFSDYYMTWIRQAPGKGLEWVSSISGGSTYYADSRKGRFTISRDNSENTLYLQMNSLRAEDTAVYYCARDFGVAGWFGQYGMDVWGQGTLVTVSSGGGGSGGGGSGGGGSQSVLTQPPSASGTPGQRVTISCTGSSSNIGAGYDVHWYQQLPGTAPKLLIYRSNQRPSGVPDRFSGSKSGTSASLAISGLRSEDEADYYCSSYAGNYNLVFGGGTKLTVLDKTHTCPPCPAPEAAGAPSVFLFPPKPKDTLMISRTPEVTCVVVDVSHEDPEVKFNWYVDGVEVHNAKTKPREEQYNSTYRVVSVLTVLHQDWLNGKEYKCKVSNKALPAPIEKTISKAKGQPREPQVCTLPPSRDELTKNQVSLSCAVKGFYPSDIAVEWESNGQPENNYKTTPPVLDSDGSFFLVSKLTVDKSRWQQGNVFSCSVMHEALHNHYTQKSLSLSPGWSHPQFEK
**Q.** What does the source list for B2?
**A.** % Emax BMP9 [1]: 14%; Emax (RLU) [1]: 502000 RLU; Abs450 1 nM [3]: 0.05; Abs450 10 nM [3]: 0.07; Abs450 100 nM [3]: 0.07; Abs450 1 nM [2]: 0.15; Abs450 10 nM [2]: 0.22; Abs450 100 nM [2]: 0.66

B3: DGL916 (bispecific antibody)
chain 1: not shown
chain 2: EVQLLESGGGLVQPGGSLRLSCAASGFTFSDYWMTWIRQAPGKGLEWVSSISGGSTYYADSRKGRFTISRDNSENTLYLQMNSLRAEDTAVYYCARDFGVAGWFGQYGMDVWGQGTLVTVSSGGGGSGGGGSGGGGSQSVLTQPPSASGTPGQRVTISCTGSSSNIGAGYDVHWYQQLPGTAPKLLIYRSNQRPSGVPDRFSGSKSGTSASLAISGLRSEDEADYYCSSYAGNYNLVFGGGTKLTVLDKTHTCPPCPAPEAAGAPSVFLFPPKPKDTLMISRTPEVTCVVVDVSHEDPEVKFNWYVDGVEVHNAKTKPREEQYNSTYRVVSVLTVLHQDWLNGKEYKCKVSNKALPAPIEKTISKAKGQPREPQVCTLPPSRDELTKNQVSLSCAVKGFYPSDIAVEWESNGQPENNYKTTPPVLDSDGSFFLVSKLTVDKSRWQQGNVFSCSVMHEALHNHYTQKSLSLSPGWSHPQFEK
**Q.** With B3 as the binder, how does the “% Emax BMP9” value [4] read?
**A.** 41%

**Q.** What about the “Emax (RLU)” value [4] of the same binder?
**A.** 1.11e+06 RLU

B4: DGL915 (bispecific antibody)
chain 1: not shown
chain 2: EVQLLESGGGLVQPGGSLRLSCAASGFTFSDYYMTWIRQAPGKGLEWVSSISGGSTYYADSRKGRFTISRDNSENTLYLQMNSLRAEDTAVYYCARDFGVSGWFGQYGMDVWGQGTLVTVSSGGGGSGGGGSGGGGSQSVLTQPPSASGTPGQRVTISCTGSSSNIGAGYDVHWYQQLPGTAPKLLIYRSNQRPSGVPDRFSGSKSGTSASLAISGLRSEDEADYYCSSYAGNYNLVFGGGTKLTVLDKTHTCPPCPAPEAAGAPSVFLFPPKPKDTLMISRTPEVTCVVVDVSHEDPEVKFNWYVDGVEVHNAKTKPREEQYNSTYRVVSVLTVLHQDWLNGKEYKCKVSNKALPAPIEKTISKAKGQPREPQVCTLPPSRDELTKNQVSLSCAVKGFYPSDIAVEWESNGQPENNYKTTPPVLDSDGSFFLVSKLTVDKSRWQQGNVFSCSVMHEALHNHYTQKSLSLSPGWSHPQFEK
**Q.** How did the “% Emax BMP9” value [4] turn out when B4 was run?
**A.** 5%

**Q.** And the “Emax (RLU)” value [4]?
**A.** 124000 RLU

B5: DGL914 (bispecific antibody)
chain 1: not shown
chain 2: EVQLLESGGGLVQPGGSLRLSCAASGFTFSDYYMNWIRQAPGKGLEWVSSISGGSTYYADSVKGRFTISRDNSENTLYLQMNSLRAEDTAVYYCARDFGVAGWFGYYGMDVWGQGTLVTVSSGGGGSGGGGSGGGGSQSVLTQPPSASGTPGQRVTISCTGSSSNIGAGYDVHWYQQLPGTAPKLLIYRSNQRPSGVPDRFSGSKSGTSASLAISGLRSEDEADYYCSSYAGNYNLVFGGGTKLTVLDKTHTCPPCPAPEAAGAPSVFLFPPKPKDTLMISRTPEVTCVVVDVSHEDPEVKFNWYVDGVEVHNAKTKPREEQYNSTYRVVSVLTVLHQDWLNGKEYKCKVSNKALPAPIEKTISKAKGQPREPQVCTLPPSRDELTKNQVSLSCAVKGFYPSDIAVEWESNGQPENNYKTTPPVLDSDGSFFLVSKLTVDKSRWQQGNVFSCSVMHEALHNHYTQKSLSLSPGWSHPQFEK
**Q.** B5 was tested. Which “% Emax BMP9” value [4] did it give?
**A.** 20%

**Q.** And the “Emax (RLU)” value [4]?
**A.** 557000 RLU

B6: DGL917 (bispecific antibody)
chain 1: not shown
chain 2: EVQLLESGGGLVQPGGSLRLSCAASGFTFSDYYMTWIRQAPGKGLEWVSSISGGTTYYADSRKGRFTISRDNSENTLYLQMNSLRAEDTAVYYCARDFGVAGWFGQYGMDVWGQGTLVTVSSGGGGSGGGGSGGGGSQSVLTQPPSASGTPGQRVTISCTGSSSNIGAGYDVHWYQQLPGTAPKLLIYRSNQRPSGVPDRFSGSKSGTSASLAISGLRSEDEADYYCSSYAGNYNLVFGGGTKLTVLDKTHTCPPCPAPEAAGAPSVFLFPPKPKDTLMISRTPEVTCVVVDVSHEDPEVKFNWYVDGVEVHNAKTKPREEQYNSTYRVVSVLTVLHQDWLNGKEYKCKVSNKALPAPIEKTISKAKGQPREPQVCTLPPSRDELTKNQVSLSCAVKGFYPSDIAVEWESNGQPENNYKTTPPVLDSDGSFFLVSKLTVDKSRWQQGNVFSCSVMHEALHNHYTQKSLSLSPGWSHPQFEK
**Q.** B6 was tested. Which “% Emax BMP9” value [4] did it give?
**A.** 17%

**Q.** And the “Emax (RLU)” value [4]?
**A.** 469000 RLU

B7: DGL918 (bispecific antibody)
chain 1: not shown
chain 2: EVQLLESGGGLVQPGGSLRLSCAASGFTFSDYWMTWIRQAPGKGLEWVSSISGGTTYYADSRKGRFTISRDNSENTLYLQMNSLRAEDTAVYYCARDFGVSGWFGQYGMDVWGQGTLVTVSSGGGGSGGGGSGGGGSQSVLTQPPSASGTPGQRVTISCTGSSSNIGAGYDVHWYQQLPGTAPKLLIYRSNQRPSGVPDRFSGSKSGTSASLAISGLRSEDEADYYCSSYAGNYNLVFGGGTKLTVLDKTHTCPPCPAPEAAGAPSVFLFPPKPKDTLMISRTPEVTCVVVDVSHEDPEVKFNWYVDGVEVHNAKTKPREEQYNSTYRVVSVLTVLHQDWLNGKEYKCKVSNKALPAPIEKTISKAKGQPREPQVCTLPPSRDELTKNQVSLSCAVKGFYPSDIAVEWESNGQPENNYKTTPPVLDSDGSFFLVSKLTVDKSRWQQGNVFSCSVMHEALHNHYTQKSLSLSPGWSHPQFEK
**Q.** Which results are given for B7?
**A.** % Emax BMP9 [4]: 46%; Emax (RLU) [4]: 1.24e+06 RLU

— patent US20250002588A1 (DIAGONAL THERAPEUTICS, published 2025)
